US20070286806A1, “Methods and Compositions for Modulating a Steroid Receptor” (Mount Sinai Hospital, priority 2004, published 2007)

Test system: PRA and PRB protein
Assay: PR protein level by western blot of whole cell lysate after co-transfection in SHM cells
Assay type: cell-based
Description: FIG. 5. […] (A) SHM cells were transient transfected (eighteen hours) with PRA or PRB expression vector with or without increasing doses (0.2, 0.5, 1.0 and 2.0 μg) of His-PSF vector as indicated. Whole cell lysate was analyzed by western blot with PR or His tag antibody. NS=non-specific binding. (B) SHM cells were transient transfected (eighteen hours) with PRA or PRB expression vector together with 2.0 μg His tagged PSF1-707 or truncated PSF1-662. Culture media was added with or without 60 nM MG132 (Z-Leu-Leu-Leu-a1) as indicated for another 6 hours. Whole cell lysate was analyzed by western blot with PR or His tag antibody. Gβ protein was also detected as the cell lysate loading control.
For immunoprecipitation of the endogenous PR and PSF, T47D cells cultured in 150 mm dishes were lysed in 800 μl NETN buffer containing 150 mM NaCl plus protease inhibitor cocktail. Cell lysate were then incubated with 5 μg of PR or PSF, or control mouse IgG at 4° C. overnight, followed by the addition of 30 μl of protein A/G PLUS-agarose beads (Santa Cruz) for another two hours at 4° C. Resins were washed with NETN containing 250 mM NaCl and eluted with 1×Laemmli buffer. The eluted proteins along with the whole cell extract were western blotted by PR or PSF antibody. • GST pulldown assay: GST pulldown assay was performed as previously described (20). GST and its fusion proteins were first immobilized to glutathione-Sepharose 4B affinity matrix. The matrix was then incubated at 4° C. overnight with rabbit reticulocyte lysate (Promega) containing PR or His-PSF transcribed and translated in presence of ^35S methionine. The matrix was washed three times with cold NETN buffer before adding 1 ×Laemmli buffer to elute associated proteins. The eluted proteins were separated on 10% SDS-PAGE gel. Gels were treated with Enhancer (NEN, Boston, US) dried and analyzed by autoradiography. • Cell culture and transient transfection: SHM cells and 293T cells were maintained in DMEM plus 5% FCS (Sigma) as described before (22). For experiments involving steroid exposure, the medium was substituted with phenol red free DMEM containing 5% charcoal-treated fetal bovine serum (Hyclone, Utah, USA). Transfection was performed according to manufacturers protocol (Fementas). Cells were seeded at a density to achieve 60-80% confluency the following day. The DNA and transfection reagent were mixed and added to the medium. Cell lysates were collected at least 30 hours after transfection. For luciferase assay, cells were collected in 200 μl of lysis buffer (Promega) of which 10μl was used for the luciferase and β-Gal activity assays respectively. Luciferase activity was determined by using the luciferin reagent (Promega) according to manufacture's protocol. […]

B1: polypyrimidine tract binding protein-associated splicing factor (protein)
chain: MSRDRFRSRGGGGGGFHRRGGGGGRGGLHDFRSPPPGMGLNQNRGPMGPGPGQSGPKPPIPPPPPHQQQQQPPPQQPPPQQPPPHQPPPHPQPHQQQQPPPPPQDSSKPVVAQGPGPAPGVGSAPPASSSAPPATPPTSGAPPGSGPGPTPTPPPAVTSAPPGAPPPTPPSSGVPTTPPQAGGPPPPPAAVPGPGPGPKQGPGPGGPKGGKMPGGPKPGGGPGLSTPGGHPKPPHRGGGEPRGGRQHHPPYHQQHHQGPPPGGPGGRSEEKISDSEGFKANLSLLRRPGEKTYTQRCRLFVGNLPADITEDEFKRLFAKYGEPGEVFINKGKGFGFIKLESRALAEIAKAELDDTPMRGRQLRVRFATHAAALSVRNLSPYVSNELLEEAFSQFGPIERAVVIVDDRGRSTGKGIVEFASKPAARKAFERCSEGVFLLTTTPRPVIVEPLEQLDDEDGLPEKLAQKNPMYQKERETPPRFAQHGTFEYEYSQRWKSLDEMEKQQREQVEKNMKDAKDKLESEMEDAYHEHQANLLRQDLMRRQEELRRMEELHNQEMQKRKEMQLRQEEERRRREEEMMIRQREMEEQMRRQREESYSRMGYMDPRERDMRMGGGGAMNMGDPYGSGGQKFPPLGGGGGIGYEANPGVPPATMSGSMMGSDMRTERFGQGGAGPVGGQGPRGMGPGTPAGYGRGREEYEGPNKKPRF
notes: expressed from transfected His-PSF vector or in vitro translated
PR proteins after co-transfection with PRB/PRA (after 24 hours): total loss of PR proteins
level of PRA and PRB protein (increasing dose of PSF expression vector, constant dose of PR vector): decrease
